Experimental findings from PMC12416549 (2024) are described below.

T1: TNFR1 (Homo sapiens, UniProt P19438)
T1 chain: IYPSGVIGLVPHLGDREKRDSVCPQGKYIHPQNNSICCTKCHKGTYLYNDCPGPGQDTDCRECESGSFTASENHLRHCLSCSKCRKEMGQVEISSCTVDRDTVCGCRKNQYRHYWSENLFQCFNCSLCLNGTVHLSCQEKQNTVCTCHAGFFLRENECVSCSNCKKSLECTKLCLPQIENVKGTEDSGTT

B1: T57Y (designed binder)
chain: SMEEEVEKAAKEYEKKKKEAIEKHLEKLKAKDKEAAERFLKELEEAAKEYAKDEAKYMSEEEAKRRAKKYKEKVLLSELSEEEQKEIKEAEEKLVRTILKYVEEAAK
B2: A10F (designed binder)
chain: SMEEEVEKAFKEYEKKKKEAIEKHLEKLKAKDKEAAERFLKELEEAAKEYAKDEAKTMSEEEAKRRAKKYKEKVLLSELSEEEQKEIKEAEEKLVRTILKYVEEAAK
B3: S77G (designed binder)
chain: SMEEEVEKAAKEYEKKKKEAIEKHLEKLKAKDKEAAERFLKELEEAAKEYAKDEAKTMSEEEAKRRAKKYKEKVLLGELSEEEQKEIKEAEEKLVRTILKYVEEAAK
B4: E22L (designed binder)
chain: SMEEEVEKAAKEYEKKKKEAILKHLEKLKAKDKEAAERFLKELEEAAKEYAKDEAKTMSEEEAKRRAKKYKEKVLLSELSEEEQKEIKEAEEKLVRTILKYVEEAAK
B5: K68T (designed binder)
chain: SMEEEVEKAAKEYEKKKKEAIEKHLEKLKAKDKEAAERFLKELEEAAKEYAKDEAKTMSEEEAKRRATKYKEKVLLSELSEEEQKEIKEAEEKLVRTILKYVEEAAK
B6: K69C (designed binder)
chain: SMEEEVEKAAKEYEKKKKEAIEKHLEKLKAKDKEAAERFLKELEEAAKEYAKDEAKTMSEEEAKRRAKCYKEKVLLSELSEEEQKEIKEAEEKLVRTILKYVEEAAK
B7: K93P (designed binder)
chain: SMEEEVEKAAKEYEKKKKEAIEKHLEKLKAKDKEAAERFLKELEEAAKEYAKDEAKTMSEEEAKRRAKKYKEKVLLSELSEEEQKEIKEAEEPLVRTILKYVEEAAK
B8: E86F (designed binder)
chain: SMEEEVEKAAKEYEKKKKEAIEKHLEKLKAKDKEAAERFLKELEEAAKEYAKDEAKTMSEEEAKRRAKKYKEKVLLSELSEEEQKFIKEAEEKLVRTILKYVEEAAK
B9: K68A (designed binder)
chain: SMEEEVEKAAKEYEKKKKEAIEKHLEKLKAKDKEAAERFLKELEEAAKEYAKDEAKTMSEEEAKRRAAKYKEKVLLSELSEEEQKEIKEAEEKLVRTILKYVEEAAK
B10: A106T (designed binder)
chain: SMEEEVEKAAKEYEKKKKEAIEKHLEKLKAKDKEAAERFLKELEEAAKEYAKDEAKTMSEEEAKRRAKKYKEKVLLSELSEEEQKEIKEAEEKLVRTILKYVEEATK
B11: K88N (designed binder)
chain: SMEEEVEKAAKEYEKKKKEAIEKHLEKLKAKDKEAAERFLKELEEAAKEYAKDEAKTMSEEEAKRRAKKYKEKVLLSELSEEEQKEINEAEEKLVRTILKYVEEAAK
B12: K71H (designed binder)
chain: SMEEEVEKAAKEYEKKKKEAIEKHLEKLKAKDKEAAERFLKELEEAAKEYAKDEAKTMSEEEAKRRAKKYHEKVLLSELSEEEQKEIKEAEEKLVRTILKYVEEAAK
B13: K100N (designed binder)
chain: SMEEEVEKAAKEYEKKKKEAIEKHLEKLKAKDKEAAERFLKELEEAAKEYAKDEAKTMSEEEAKRRAKKYKEKVLLSELSEEEQKEIKEAEEKLVRTILNYVEEAAK
B14: V102I (designed binder)
chain: SMEEEVEKAAKEYEKKKKEAIEKHLEKLKAKDKEAAERFLKELEEAAKEYAKDEAKTMSEEEAKRRAKKYKEKVLLSELSEEEQKEIKEAEEKLVRTILKYIEEAAK
B15: A47S (designed binder)
chain: SMEEEVEKAAKEYEKKKKEAIEKHLEKLKAKDKEAAERFLKELEEASKEYAKDEAKTMSEEEAKRRAKKYKEKVLLSELSEEEQKEIKEAEEKLVRTILKYVEEAAK
B16: E12G (designed binder)
chain: SMEEEVEKAAKGYEKKKKEAIEKHLEKLKAKDKEAAERFLKELEEAAKEYAKDEAKTMSEEEAKRRAKKYKEKVLLSELSEEEQKEIKEAEEKLVRTILKYVEEAAK
B17: K16P (designed binder)
chain: SMEEEVEKAAKEYEKPKKEAIEKHLEKLKAKDKEAAERFLKELEEAAKEYAKDEAKTMSEEEAKRRAKKYKEKVLLSELSEEEQKEIKEAEEKLVRTILKYVEEAAK
B18: K52C (designed binder)
chain: SMEEEVEKAAKEYEKKKKEAIEKHLEKLKAKDKEAAERFLKELEEAAKEYACDEAKTMSEEEAKRRAKKYKEKVLLSELSEEEQKEIKEAEEKLVRTILKYVEEAAK
B19: E81Q (designed binder)
chain: SMEEEVEKAAKEYEKKKKEAIEKHLEKLKAKDKEAAERFLKELEEAAKEYAKDEAKTMSEEEAKRRAKKYKEKVLLSELSQEEQKEIKEAEEKLVRTILKYVEEAAK
B20: K41M (designed binder)
chain: SMEEEVEKAAKEYEKKKKEAIEKHLEKLKAKDKEAAERFLMELEEAAKEYAKDEAKTMSEEEAKRRAKKYKEKVLLSELSEEEQKEIKEAEEKLVRTILKYVEEAAK
B21: K68R (designed binder)
chain: SMEEEVEKAAKEYEKKKKEAIEKHLEKLKAKDKEAAERFLKELEEAAKEYAKDEAKTMSEEEAKRRARKYKEKVLLSELSEEEQKEIKEAEEKLVRTILKYVEEAAK
B22: E72S (designed binder)
chain: SMEEEVEKAAKEYEKKKKEAIEKHLEKLKAKDKEAAERFLKELEEAAKEYAKDEAKTMSEEEAKRRAKKYKSKVLLSELSEEEQKEIKEAEEKLVRTILKYVEEAAK
B23: E45S (designed binder)
chain: SMEEEVEKAAKEYEKKKKEAIEKHLEKLKAKDKEAAERFLKELESAAKEYAKDEAKTMSEEEAKRRAKKYKEKVLLSELSEEEQKEIKEAEEKLVRTILKYVEEAAK
B24: K64N (designed binder)
chain: SMEEEVEKAAKEYEKKKKEAIEKHLEKLKAKDKEAAERFLKELEEAAKEYAKDEAKTMSEEEANRRAKKYKEKVLLSELSEEEQKEIKEAEEKLVRTILKYVEEAAK
B25: L79S (designed binder)
chain: SMEEEVEKAAKEYEKKKKEAIEKHLEKLKAKDKEAAERFLKELEEAAKEYAKDEAKTMSEEEAKRRAKKYKEKVLLSESSEEEQKEIKEAEEKLVRTILKYVEEAAK
B26: S80W (designed binder)
chain: SMEEEVEKAAKEYEKKKKEAIEKHLEKLKAKDKEAAERFLKELEEAAKEYAKDEAKTMSEEEAKRRAKKYKEKVLLSELWEEEQKEIKEAEEKLVRTILKYVEEAAK
B27: K33A (designed binder)
chain: SMEEEVEKAAKEYEKKKKEAIEKHLEKLKAKDAEAAERFLKELEEAAKEYAKDEAKTMSEEEAKRRAKKYKEKVLLSELSEEEQKEIKEAEEKLVRTILKYVEEAAK
B28: R65Q (designed binder)
chain: SMEEEVEKAAKEYEKKKKEAIEKHLEKLKAKDKEAAERFLKELEEAAKEYAKDEAKTMSEEEAKQRAKKYKEKVLLSELSEEEQKEIKEAEEKLVRTILKYVEEAAK
B29: K27T (designed binder)
chain: SMEEEVEKAAKEYEKKKKEAIEKHLETLKAKDKEAAERFLKELEEAAKEYAKDEAKTMSEEEAKRRAKKYKEKVLLSELSEEEQKEIKEAEEKLVRTILKYVEEAAK
B30: M2P (designed binder)
chain: SPEEEVEKAAKEYEKKKKEAIEKHLEKLKAKDKEAAERFLKELEEAAKEYAKDEAKTMSEEEAKRRAKKYKEKVLLSELSEEEQKEIKEAEEKLVRTILKYVEEAAK
B31: S1N (designed binder)
chain: NMEEEVEKAAKEYEKKKKEAIEKHLEKLKAKDKEAAERFLKELEEAAKEYAKDEAKTMSEEEAKRRAKKYKEKVLLSELSEEEQKEIKEAEEKLVRTILKYVEEAAK
B32: L79M (designed binder)
chain: SMEEEVEKAAKEYEKKKKEAIEKHLEKLKAKDKEAAERFLKELEEAAKEYAKDEAKTMSEEEAKRRAKKYKEKVLLSEMSEEEQKEIKEAEEKLVRTILKYVEEAAK
B33: E42Q (designed binder)
chain: SMEEEVEKAAKEYEKKKKEAIEKHLEKLKAKDKEAAERFLKQLEEAAKEYAKDEAKTMSEEEAKRRAKKYKEKVLLSELSEEEQKEIKEAEEKLVRTILKYVEEAAK

The test addresses T1, TNFR1. The test is described as follows: yeast display SC50.
With B1, the “apparent Kd (screen)” value amounted to 0.0802 nM. Regarding B2, the “apparent Kd (screen)” value was found to be 10.4 nM. As to B3, the “apparent Kd (screen)” value came to 2.48 nM. Consider B4, for which the “apparent Kd (screen)” value turned out to be 0.869 nM. In the case of B5, the “apparent Kd (screen)” value came to 1.4 nM. B6: the “apparent Kd (screen)” value is 2.48 nM.

Take B7: the “apparent Kd (screen)” value was 8.56 nM. With B8, the “apparent Kd (screen)” value is 1.86 nM. Then B9, with 1.05 nM; and B10, with 1.54 nM; and B11, with 0.446 nM. Take B12: the “apparent Kd (screen)” value is 0.593 nM. Consider B13, for which the “apparent Kd (screen)” value was determined as 0.956 nM. Then B14, with 2.73 nM; and B15, with 2.05 nM. Take B16: the “apparent Kd (screen)” value was 0.49 nM. Turning to B17, the “apparent Kd (screen)” value came out at 18.3 nM. As to B18, the “apparent Kd (screen)” value amounted to 1.27 nM.

As to B19, the “apparent Kd (screen)” value is 0.593 nM. Turning to B20, the “apparent Kd (screen)” value was found to be 0.446 nM. Take B21: the “apparent Kd (screen)” value came to 0.718 nM.

B22: the “apparent Kd (screen)” value stood at 2.73 nM.

On to B23, for which the “apparent Kd (screen)” value was determined as 2.73 nM. Regarding B24, the “apparent Kd (screen)” value amounted to 0.653 nM.

For B25, the “apparent Kd (screen)” value came to 2.73 nM. As to B26, the “apparent Kd (screen)” value stood at 3 nM.

With B27, the “apparent Kd (screen)” value is 0.49 nM. Regarding B28, the “apparent Kd (screen)” value worked out at 0.304 nM.

Consider B29, for which the “apparent Kd (screen)” value was 0.956 nM.

As for B30, the “apparent Kd (screen)” value is 0.49 nM. With B31, the “apparent Kd (screen)” value amounted to 0.593 nM. B32: the “apparent Kd (screen)” value was 0.79 nM. Regarding B33, the “apparent Kd (screen)” value turned out to be 9.41 nM.
